Data published in patent US20180280504A1, “GLYCAN-INTERACTING COMPOUNDS AND METHODS OF USE” (SIAMAB THERAPEUTICS, INC., priority 2014, published 2018).

B1: 18C7: anti-STn mouse monoclonal, IgG2c κ, from mouse #4436; VH SEQ ID NO: 4, VL SEQ ID NO: 5 (antibody, V domains shown)
VH: QVTLKESGPGILQPSQTLSLTCSFSGFSLSTFGMGVGWIRQPSGKGLEWLAHIWWDDDKYYNPALKSRLTISKDTSKNQVFLKIANVDTADTATYYCARIAYYYGSERDYWGQGTTLTVSS
VL: QIVLTQSPAIMSASPGEKVTMTCSASSSISYMHWYHQKPGTSPKRWIYDTSKLASGVPARFSGSGSGTSYSLTISSMEAEDAATYYCHQRSSYTFGGGTKLEIKR
B2: S3F: 3F1 variable domains combined with IgG2a constant domains; heavy chain SEQ ID NO: 63, light chain SEQ ID NO: 64 (antibody)
heavy: QVQLQQSDAELVKPGASVKISCKASGYTFTDHAIHWVKQKPEQGLDWIGYISPGNGDIKYNEKFKDKVTLTADKSSSTACMHLNSLTSEDSAVYFCKRSLLALDYWGQGTTLTVSSAKTTAPSVYPLAPVCGDTTGSSVTLGCLVKGYFPEPVTLTWNSGSLSSGVHTFPAVLQSDLYTLSSSVTVTSSTWPSQSITCNVAHPASSTKVDKKIEPRGPTIKPCPPCKCPAPNLLGGPSVFIFPPKIKDVLMISLSPIVTCVVVDVSEDDPDVQISWFVNNVEVHTAQTQTHREDYNSTLRVVSALPIQHQDWMSGKEFKCKVNNKDLPAPIERTISKPKGSVRAPQVYVLPPPEEEMTKKQVTLTCMVTDFMPEDIYVEWTNNGKTELNYKNTEPVLDSDGSYFMYSKLRVEKKNWVERNSYSCSVVHEGLHNHHTTKSFSRTPGK
light: DIVMTQSHKFMSTSVGDRVSITCKASQDVGTNIAWYQQKPGRSPKVLIYSASTRHTGVPDRFTGSGSGTDFTLTISNVQSEDLTDYFCQQYSSFPLTFGVGTKLELKRADAAPTVSIFPPSSEQLTSGGASVVCFLNNFYPKDINVKWKIDGSERQNGVLNSWTDQDSKDSTYSMSSTLTLTKDEYERHNSYTCEATHKTSTSPIVKSFNRNEC

How the values were obtained:
[1] = Glycan array, Tn and other glycans; type: binding; conditions: glycan microarray
Procedure: Optimized glycan arrays comprise 71 chemically synthesized and well-defined glycans, most of which comprise Neu5Ac and Neu5Gc glycan pairs.
300 ml of epoxy blocking buffer is prepared by combining 15 ml of 2 M Tris buffer (pH 8) with 0.9 ml of 16.6 M ethanolamine and 284.1 ml of distilled water. The solution was brought to a final pH of 9.0 with HCl. The solution is filtered using a 0.2 μM nitrocellulose membrane. The epoxy buffer solution as well as 1 L of distilled water are pre-warmed to 50° C. Glass slides are arranged in a slide holder and quickly submerged in a staining tub with the warmed epoxy blocking buffer. Slides are incubated in the epoxy blocking buffer for 1 hour at 50° C. with periodic shaking to deactivate epoxy binding sites. Next, slides are rinsed and blocked with PBS with 1% OVA at 25° C. for one hour. Serum samples with polyclonal antibodies (1:1000) or purified monoclonal antibodies (1 ug/mL), are diluted in PBS with 1% OVA and added to the glycan array for one hour at 25° C. After extensive washing, binding of antibodies are detected by incubating glycan microarray slides with Cy3-conjugated anti-mouse IgG (Jackson Immunoresearch, West Grove, Pa.) for one hour. Slides are then washed extensively, dried and scanned with a Genepix 4000B scanner (Laser at 100%; gain at 350; 10 μm pixels). […]

[2] = COLO-205 xenograft model, percent body weight change; type: in vivo, mouse; conditions: 5 mg/kg i.p. once weekly
Excerpt: To evaluate antibody drug conjugates (ADCs) as single agents in an COLO-205 Colon AdenocarcinomaTumor Xonograft model, 40 athymic nude female mice age range 6-8 weeks were randomly separated into four separate groups, one vehicle control and three ADC treatments, then maintained individually with food/water ad libitum (see the following Table).
Animals were inoculated in the subcutaneous right flank with 5×10^6 colon adenocarcinoma tumor cells (COLO-205) in matrigel, mean tumor size was 175-225 mm^3 at study initiation. Animals were given either vehicle or one of the antibody drug conjugates (5 mg/kg) by intraperitoneal injection once weekly. Tumor volume and percent body weight change were determined once weekly until study termination. The study was terminated when the tumor in the vehicle control animal reached a mean tumor weight >1500 mm^3. SE refers to “standard error.”

Molecule	binding to Tn antigen or other glycans [1]	body weight course after initial drop [2]	Percent Body Weight Change ([2]; study day 1) [%]	Percent Body Weight Change ([2]; study day 5) [%]	Percent Body Weight Change ([2]; study day 8) [%]	Percent Body Weight Change ([2]; study day 10) [%]	Percent Body Weight Change ([2]; study day 15) [%]	Percent Body Weight Change ([2]; study day 19) [%]	Percent Body Weight Change ([2]; study day 22) [%]
B1	No binding	–	–	–	–	–	–	–	–
B2	–	remained low	0	1.18	−5.01	−2.53	−5.22	−1.33	−0.91
